The target of the test is SELL (L-Selectin). In words: ELISA on coated SELL-Fc-His, 150 ng IgG1; None 0.096.
Chain of SELL (L-Selectin) (chain, as listed by the source limits assumed): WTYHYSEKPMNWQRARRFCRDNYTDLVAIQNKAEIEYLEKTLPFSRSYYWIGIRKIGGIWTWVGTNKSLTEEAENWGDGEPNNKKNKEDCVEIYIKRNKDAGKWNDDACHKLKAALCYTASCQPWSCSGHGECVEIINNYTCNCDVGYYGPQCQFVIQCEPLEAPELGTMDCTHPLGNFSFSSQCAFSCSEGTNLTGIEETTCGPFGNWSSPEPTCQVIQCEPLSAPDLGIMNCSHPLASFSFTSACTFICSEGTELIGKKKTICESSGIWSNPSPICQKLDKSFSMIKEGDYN

B1: HW-28 chimeric rabbit-human IgG1 LA/LA/PG (antibody, V domains shown)
VH: QKQLVESGGRLVTPGTPLTLTCTASGFSLSSNAMSWVRQAPGEGLQWIGTISSGGSTYYASWAKGRFTISKTSTTVTLKMTSLTTEDTATYFCARGADLHRLWGPGTLVTVSS
VL: SFVLTQPASVQVNLGQTVSLTCTGKPLSRSFASWYQQKPGQAPVLVIYRDTSRPSGVPDRFSGSSSGNTATLTISGAQAGDEADYYCATSDGSGSSYQYVFGGGTQLTVTG
Molecule B1 showed an ELISA Absorbance (405 nm-570 nm) of 0.188.

The values above are taken from patent publication US20260049134A1.
